The nature of the series: yeast display, Sf9 membrane polyspecificity reagent, FACS + sequencing; frameworks hold sequencing errors. In a few lines: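 Galactose induction of a Saccharomyces cerevisiae BJ5465 synthetic nanobody display library ran 36–48 hours. The cells were then stained for 1 hour at 4 °C with 10% biotinylated, detergent-solubilized Sf9 membrane reagent, pulled down on streptavidin microbeads and FACS-sorted into low and high (top ~1%) gates on expression and reagent-binding fluorescence. Labels for polyreactivity follow the gate of origin.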
As to “QVQLVESGGGLVQAGGSLRLSCAASGLTFPPYAMGWYRQAPGKERELVAAISWNGGNTYYADSVKGRFTISRDNAKNTVYLQMNSLKPEDTAVYYCAAKRGTQGMYYWGQGTQVTVSS”, the “polyreactivity (PSR sort gate)” value is “high polyreactivity”.

Regarding “QVQLVESGGGLVQAGGSLRLSCAASGLTFPSYAMGWSRQAPGKERELVAAISRRSGSTYYADSVKGRFTICGDNAKYTVYLQMISLKPEDTAVYYCTTRRGERGYWGQGTQVTVSS”, the “polyreactivity (PSR sort gate)” value is listed as “high polyreactivity”.

Take “QVQLVESGGGLVQAGGSLRLSCAASGLTFPSYAMGWYRQAPGKERELVAVISSSGGRTYYADSVKGRFTISRDNAKNTVYLQMNSLIPEDTAVYYCNVGGFLRRRSYDYWGQGTQVTVSS”: the “polyreactivity (PSR sort gate)” value is on record as “high polyreactivity”.

As for “QVQLVESGGGLVQAGGSLRLSCAASGLTFPYNLMGWYRQAPGKERELVASITSVGTTDYADSVKGRFTISRDNAKNTVYLQMNSLKPEDTAVYYCAADVTMFYWWYGKEDYDFWGQGNQVTVSS”, the “polyreactivity (PSR sort gate)” value is “low polyreactivity”.

Take “QVQLVESGGGLVQAGGSLRLSCAASGLTFQHYAMGWYRQAPGKERELVASISYSGGGTYADSVKGRFTISRDNAKNTVYLQMNSQKPEDTAVYYCATSLQRQFDYWGQGTQVTVSS”: the “polyreactivity (PSR sort gate)” value is “low polyreactivity”.

For the sequence “QVQLVESGGGLVQAGGSLRLSCAASGLTFQLYGMGWYRQAPGKERELVAAISGSGGRTYYADSVKGRFTISRDNAKNTVYLQMNSLKPEDTAVYYCAARPGSGRSYTSDYWGQGTQVNVSS”, the “polyreactivity (PSR sort gate)” value is given as “high polyreactivity”.

Take “QVQLVESGGGLVQAGGSLRLSCAASGLTFQSNAMGWYRQAPGKEREFVAAITSGGNTYYADSVKGRFTISRDNAKNTVYLQMNSLKPEDTAVYYCNADYQDEEDDYWGQGTQVTVSS”: the “polyreactivity (PSR sort gate)” value is on record as “low polyreactivity”.

As for “QVQLVESGGGLVQAGGSLRLSCAASGLTFQVYAMGWYRQAPGKERELVAGITRAGSTYYADSVKGRFTISRDNAKNTVYLQMNSLKPEDTAVYYCAARQPPPYYYWGQGTQVNVSS”, the “polyreactivity (PSR sort gate)” value was “high polyreactivity”.

On to “QVQLVESGGGLVQAGGSLRLSCAASGLTFQYYAMGWYRQAPGKEREFVAAITRRGGNTYYADSVKGRFTISRDNAKNTVYLQMNSLKPEDTAVYYCAARYLQGRYDYWGQGTQVTVSS”, for which the “polyreactivity (PSR sort gate)” value was “high polyreactivity”.

As for “QVQLVESGGGLVQAGGSLRLSCAASGLTFRHYAMGWYRQAPGKERELVAAITSSGGSTYYADSVKGRFTISRDNAKNTVYIQMNSLKPEDTAVYYCNARWSYFHAVSGVASDYWGQGTQVTVSS”, the “polyreactivity (PSR sort gate)” value was “high polyreactivity”.

“QVQLVESGGGLVQAGGSLRLSCAASGLTFRLNAMGWYRQAPGKERELVAAITSIADRTYYADSVKGRFTISRDNAKNTVYLQMNSLKPEDTAVYYCNVTPRRAQVRIGNYWGQGTQVTVSS”: the “polyreactivity (PSR sort gate)” value is “high polyreactivity”.

Regarding “QVQLVESGGGLVQAGGSLRLSCAASGLTFRRYAMGWYRPAPGKEREFVAAITHNGGRTYYADSVKGRFTISRDNAKNTVYLQMNSLKPEDTAVYYCNAGGQRVNYDYWGQGTQVTVSS”, the “polyreactivity (PSR sort gate)” value is listed as “high polyreactivity”.

On to “QVQLVESGGGLVQAGGSLRLSCAASGLTFRRYAMGWYRQAPGKDRELVAAISRGDNTNYADSVKGRFTISRDNAKNTVYLQMTSLKPEDTAVYFCAPRLWIRGNFNYWGQATQVTVSS”, for which the “polyreactivity (PSR sort gate)” value is listed as “high polyreactivity”.

Take “QVQLVESGGGLVQAGGSLRLSCAASGLTFRRYDMGWYSQAPGKERELVAAITGGGSTYYADSVKGRFTISRDNAKNTVYLQMNSLKPEDTAGYYCAAGTWYWSYAYDYWGQGTQVTVSS”: the “polyreactivity (PSR sort gate)” value was “high polyreactivity”.

For “QVQLVESGGGLVQAGGSLRLSCAASGLTFRSYSMGWYRQAPGKEREFVAAITGSGDTTYYADSVKGRFTISRDNAKNTVYLQMNSLKPEDTAVYYCNADRDYLWITLYEYWGQGTQVTVSS”, the “polyreactivity (PSR sort gate)” value was “high polyreactivity”.

On to “QVQLVESGGGLVQAGGSLRLSCAASGLTFRTYAMGWYRQAPGKERELVAAISRSGSTTYYADSVKGRFTISRDNAKNTVYLQMNSLKPEDTAVYYCAAVGIRWLEYWGQGTQVTVSS”, for which the “polyreactivity (PSR sort gate)” value is recorded as “high polyreactivity”.

As for “QVQLVESGGGLVQAGGSLRLSCAASGLTFRYYAMGRNRPARGKEREVVAVITTSTGTTYYADSVKGRFTISRDNAKNTVYLQMNSLKPEDTPVYYCATDTGAYLYSMYDYWGQVTQVTVSS”, the “polyreactivity (PSR sort gate)” value was “low polyreactivity”.

“QVQLVESGGGLVQAGGSLRLSCAASGLTFRYYAMGWYRQAPGKERELVATITRAGRTNYADSVKGRFTISRDNAKNTVYLQMNSLKPEDTAVYYCATKRVLTGYDSWGQGTQVTVSS”: the “polyreactivity (PSR sort gate)” value was “high polyreactivity”.

In the case of “QVQLVESGGGLVQAGGSLRLSCAASGLTFSAYTMGWYRQAPGKERELVAAIDRSGSTYYADSVKGRFTISRDNAKNTVYLQMNSLKPEDTAVYYCAADAVRKDLFDYWGQGTQVTVSS”, the “polyreactivity (PSR sort gate)” value is recorded as “low polyreactivity”.

Turning to “QVQLVESGGGLVQAGGSLRLSCAASGLTFSLYAMGWYGQAPGKEREFVAAISSSGGSTYYADSVKGRFTISRDNAKNTVYLQMNSLKPEDTAVYYCNVRRKSRMGYWGQGTQVTVSS”, the “polyreactivity (PSR sort gate)” value is “high polyreactivity”.

Take “QVQLVESGGGLVQAGGSLRLSCAASGLTFSLYAMGWYRQAPGKERELVAAISSSGSTYYADSVKGRFTISRDNAKNTVYLQMNILKPEDTAVYYFAADAPWWIDPIAGNYWGQGTQVTVSS”: the “polyreactivity (PSR sort gate)” value is reported as “high polyreactivity”.

“QVQLVESGGGLVQAGGSLRLSCAASGLTFSRYAMGWYRQAPGKERELVAAISGSGGSTYYADSVKGRFTISRDNAKNTVYLQMNSLKPEDTAVYYCNKYRATNSARDYWGQGTQVTVSS”: the “polyreactivity (PSR sort gate)” value was “high polyreactivity”.

Take “QVQLVESGGGLVQAGGSLRLSCAASGLTFSRYAMGWYRQAPGKERELVATIRSAGSTYYADSVKGRFTISRDNAKNTVYLQMNTLKPEDTAVYYCATAPYYHVKQRYYYWGQGTQVTVSS”: the “polyreactivity (PSR sort gate)” value is on record as “high polyreactivity”.

As for “QVQLVESGGGLVQAGGSLRLSCAASGLTFSRYARGWYRQAPGKERELVAAITGSGGNTYYADSVKGRFTISRDNAKNTVYLQMNSLKPEETAVYYCAARDRGDVTRRKGYYWGQGTQVTVSS”, the “polyreactivity (PSR sort gate)” value is “high polyreactivity”.

On to “QVQLVESGGGLVQAGGSLRLSCAASGLTFSWYAMGWYRPAPGKERELVAAISSGGSTYYADSVKGRFTISRDNAKNTVYLQMNSLKPEDTAVYYCNAESYYYGFFWSGFRYGYWGQGTQVTVSS”, for which the “polyreactivity (PSR sort gate)” value is listed as “high polyreactivity”.

Turning to “QVQLVESGGGLVQAGGSLRLSCAASGLTFTGNAMGWNRQAPGKEREFVAAIRWSAGSTYYADSVKGRFTISRDNAKNTVYLQMNSLKPEDSAVYYCNAGLNVSGHYPNDYWGQGTQVTVSS”, the “polyreactivity (PSR sort gate)” value is reported as “low polyreactivity”.

Take “QVQLVESGGGLVQAGGSLRLSCAASGLTFTGYAMGWYRQAPGKERELVAAISSRGGSTYYADSVKGRFTISRDNAKNTVYLQMNSLKPEDTAVYYCAARASSGARGLDYWGQGTQVTVSS”: the “polyreactivity (PSR sort gate)” value is given as “high polyreactivity”.

For the sequence “QVQLVESGGGLVQAGGSLRLSCAASGLTFTGYAMGWYRQAPGKERELVASISRSGASTFYADSVKGRFTISRDNAKNTVYLQMNSLKPEDTAVYYCAAVPGWLTSRYYYWGQGTHVTVSS”, the “polyreactivity (PSR sort gate)” value was “high polyreactivity”.

Take “QVQLVESGGGLVQAGGSLRLSCAASGLTFTHYARGWYREAPGKERELVAAISRSGGTTYYADSVKGRFTISRDNAKNTLYFQMNSLKPEDTAVYYCAARWWYRYNYDYWGLGTQVTVSS”: the “polyreactivity (PSR sort gate)” value is reported as “high polyreactivity”.

For the sequence “QVQLVESGGGLVQAGGSLRLSCAASGLTFTSNVMGWYRQAPGKERELVAAISSGGSTYYADSVKGRFTISRDNAKNTVYLQMNSLKPEDTAVYYCNTKLWGQYDYWGQGTQVTVSS”, the “polyreactivity (PSR sort gate)” value is on record as “low polyreactivity”.

On to “QVQLVESGGGLVQAGGSLRLSCAASGLTFTYYAMGWYRQAPGKERELVAAISWSGGSTYYADSVKGRFTISRDNAKNTVYLQMNSLKPEDTAVYYCAAATAYYRYRGGYDYWGQGTQVTVSS”, for which the “polyreactivity (PSR sort gate)” value was “high polyreactivity”.

Take “QVQLVESGGGLVQAGGSLRLSCAASGLTFTYYAMGWYRQAPGKERELVAVISRRGGSTYYADSVKGRFTISRDNAKNTVYLQMNSLKPEDTAVYYCAATNLQSAYDYWGHGTQVTVSS”: the “polyreactivity (PSR sort gate)” value was “high polyreactivity”.

As for “QVQLVESGGGLVQAGGSLRLSCAASGLTFVDYAMGWYRQAPGKERELVASIDYSGSSTYYADSVKGRFTISRDNAKNTVYLQMNSLKPEDTAVYYCAATDSGEYWGQGTQVTVSS”, the “polyreactivity (PSR sort gate)” value was “low polyreactivity”.

For the sequence “QVQLVESGGGLVQAGGSLRLSCAASGLTFVENAMGWYRQAPGKERELVASISNGGSTYYADSVKGRFTISRDNAKNTVYLQMNSLKQEDTAVYYCAAGYWAGYGSTAPYDYWGQGTQVTVSS”, the “polyreactivity (PSR sort gate)” value was “low polyreactivity”.

For the sequence “QVQLVESGGGLVQAGGSLRLSCAASGLTFVPNAMRWYRQAPGKERELVAAISNNGGRTYYADSVKGRFTISRDNAKNTVYLQMNSLKPEDTAVYYCAKSLSPGERHSYDYRGQGTQVTVSS”, the “polyreactivity (PSR sort gate)” value is recorded as “high polyreactivity”.

In the case of “QVQLVESGGGLVQAGGSLRLSCAASGLTFVPYAMGWYRQAPGKERELVAAIDSGGRTNYADSVKGRFTISRDNAKNTVYLQMNSLKPEDTAVYYCAVEWLSYYDENDYWGQGTQVTVSS”, the “polyreactivity (PSR sort gate)” value is “high polyreactivity”.

On to “QVQLVESGGGLVQAGGSLRLSCAASGLTFVQYTMGWYRQAPGKERELVAVITSASSTNYADSVKGRFTISRDNAKNTVYLQMNSLKPEDTAVYYCNATTYPYYTNSYQYEYWGQGTQVTVSS”, for which the “polyreactivity (PSR sort gate)” value is “low polyreactivity”.

“QVQLVESGGGLVQAGGSLRLSCAASGLTFVTYVMGWYRQAPGKERELVAAISYSGGSTYYADSVKGRFTISRDNAKNTVYLQMNSLKPEDTAVYYCAAEWYGYQEDDYRGQGTQVTVSS”: the “polyreactivity (PSR sort gate)” value was “low polyreactivity”.

Consider “QVQLVESGGGLVQAGGSLRLSCAASGLTFVVYAMGWYRQAPGKERELVAAISSTGNTYYADSEKGRFTISRDNAKNTVYLQMNSLKPEDTAVYYCAAERSFYWYHFDYWGQGTQVTVSS”, for which the “polyreactivity (PSR sort gate)” value is “high polyreactivity”.

Turning to “QVQLVESGGGLVQAGGSLRLSCAASGLTFVWYAMGWYRQAPGKERELVASITRRGVSTYADSVKGRFTISRDNAKNTVYLQMNSLKPEDTAVYYCKAQLIYKKGWYDYWGQGTQVTVSS”, the “polyreactivity (PSR sort gate)” value is “high polyreactivity”.

As for “QVQLVESGGGLVQAGGSLRLSCAASGLTFVYYAMGWYRQAPGKERELVATISWDGGSTYYADSVKGRFTISRDNAKNTVYLQLNRLKPEDTAVYYCNKYVFDRYIYETEYDYWGQGTQVTVSS”, the “polyreactivity (PSR sort gate)” value was “high polyreactivity”.

The record behind these values is the nanobody polyreactivity screen of Harvey et al. (2022).
